# Earlier results in US20240269065A1, “Implantable Device for Release of Glucagon-Like Peptide-1 Receptor Agonist” (Celanese EVA Performance Polymers LLC, priority 2023, published 2024).
# Molecular target: GLP-1 receptor (Homo sapiens, UniProt P43220)
# Conditions: in vitro studies; compared with native GLP-1 and exenatide
# Chain of GLP-1 receptor (P43220 24-463, species assumed): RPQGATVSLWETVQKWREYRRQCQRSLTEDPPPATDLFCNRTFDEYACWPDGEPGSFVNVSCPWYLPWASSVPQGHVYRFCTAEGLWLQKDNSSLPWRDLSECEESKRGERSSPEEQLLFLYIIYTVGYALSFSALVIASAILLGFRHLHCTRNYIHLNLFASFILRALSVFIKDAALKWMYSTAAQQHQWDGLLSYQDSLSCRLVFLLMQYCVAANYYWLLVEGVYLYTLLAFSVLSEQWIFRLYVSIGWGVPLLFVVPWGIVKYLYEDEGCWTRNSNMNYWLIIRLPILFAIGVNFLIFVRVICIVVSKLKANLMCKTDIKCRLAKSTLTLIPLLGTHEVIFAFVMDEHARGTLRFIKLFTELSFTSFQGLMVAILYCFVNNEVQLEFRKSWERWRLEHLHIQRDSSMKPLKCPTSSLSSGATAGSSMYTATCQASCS
substance,measurement,value
Lixisenatide,affinity for the GLP-1 receptor relative to native GLP-1 and exenatide,four times greater affinity
